B1: GTPase IMAP family member 7 (Homo sapiens), Q8NHV1 (parent)
chain: MAESEDRSLRIVLVGKTGSGKSATANTILGEEIFDSRIAAQAVTKNCQKASREWQGRDLLVVDTPGLFDTKESLDTTCKEISRCIISSCPGPHAIVLVLLLGRYTEEEQKTVALIKAVFGKSAMKHMVILFTRKEELEGQSFHDFIADADVGLKSIVKECGNRCCAFSNSKKTSKAEKESQVQELVELIEKMVQCNEGAYFSDDIYKDTEERLKQREEVLRKIYTDQLNEEIKLVEEDKHKSEEEKEKEIKLLKLKYDEKIKNIREEAERNIFKDVFNRIWKMLSEIWHRFLSKCKFYSS

Variants of: B1
Settings: with gima2_human GIMAP2, Q9UG22
gima2_human GIMAP2, Q9UG22, sequence (Q9UG22 whole entry): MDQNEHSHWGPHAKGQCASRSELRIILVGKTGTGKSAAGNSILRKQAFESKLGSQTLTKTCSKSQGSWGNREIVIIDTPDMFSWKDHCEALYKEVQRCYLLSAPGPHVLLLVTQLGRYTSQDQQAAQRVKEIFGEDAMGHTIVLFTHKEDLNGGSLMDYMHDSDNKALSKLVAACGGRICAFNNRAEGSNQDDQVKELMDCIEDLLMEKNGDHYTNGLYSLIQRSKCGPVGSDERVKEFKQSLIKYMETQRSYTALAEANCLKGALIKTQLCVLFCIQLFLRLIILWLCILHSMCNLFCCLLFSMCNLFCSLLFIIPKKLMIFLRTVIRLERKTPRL

effect of a mutation on the interaction	Variant
disrupting interaction strength	MAESEDRSLRIVLVGKTGSGKSATANTILGEEIFDSRIAAQAVTKNCQKASREWQGRDLLVVDTPGLFDTKESLDTTCKEISRCIISSCPGPHAIVLVLLLGDYTEEEQKTVALIKAVFGKSAMKHMVILFTRKEELEGQSFHDFIADADVGLKSIVKECGNRCCAFSNSKKTSKAEKESQVQELVELIEKMVQCNEGAYFSDDIYKDTEERLKQREEVLRKIYTDQLNEEIKLVEEDKHKSEEEKEKEIKLLKLKYDEKIKNIREEAERNIFKDVFNRIWKMLSEIWHRFLSKCKFYSS [R103D]
decreasing interaction strength	MAESEDRSLRIVLVGKTGSGKSATANTILGEEIFDSRIAAQAVTKNCQKASREWQGRDLLVVDTPGLFDTKESLDTTCKEISRCIISSCPGPHAIVLVLLLGRYTEEEQKTVALIKAVFGKSAMKHMVILFTRKEWLEGQSFHDFIADADVGLKSIVKECGNRCCAFSNSKKTSKAEKESQVQELVELIEKMVQCNEGAYFSDDIYKDTEERLKQREEVLRKIYTDQLNEEIKLVEEDKHKSEEEKEKEIKLLKLKYDEKIKNIREEAERNIFKDVFNRIWKMLSEIWHRFLSKCKFYSS [E136W]

— IntAct's records for PubMed 23454188
